Assay [1] deals with cynomolgus monkey PCSK9, V5-6xHIS tagged (cynomolgus monkey). The assay can be described thus: KinExA solution equilibrium, PCSK9-coated beads; cyno PCSK9.
Assay [2] has the same target. In words: SPR (Biacore 2000), antibody amine-coupled on CM5 chip, PCSK9 injected, pH 7.4. A general note: SPR reads the build-up and loss of mass on a sensor chip optically.
The target is the same in assay [3]. In words: Biacore solution equilibrium assay: PCSK9 mixed with 21B12.1, free PCSK9 read on immobilised 21B12.

B1: 16F12, anti-PCSK9 huIgG4 (antibody, V domains shown)
VH: QVHLVESGGGVVQPGRSLRLSCAASGFTFNSFGMHWVRQAPGKGLEWVALIWSDGSDEYYADSVKGRFTISRDNSKNTLYLQMNSLRAEDTAVYYCARAIAALYYYYGMDVWGQGTTVTVSS
VL: QSVLTQPPSVSAAPGQKVTISCSGSSSNIGNNFVSWYQQLPGTAPKLLIYDYNKRPSGIPDRFSGSKSGTSATLGITGLQTGDEADYYCGTWDSSLSAYVFGTGTRVTVLQ
Broadly, the Kd is the constant that tells how readily two partners part at equilibrium. On to B1, for which the dissociation constant (Kd) turned out to be 0.016 nM in assay [1] and 0.87 nM in assay [2].

B2: 21B12, anti-PCSK9 huIgG4 (antibody, V domains shown)
VH: QVQLVQSGAEVKKPGASVKVSCKASGYTLTSYGISWVRQAPGQGLEWMGWVSFYNGNTNYAQKLQGRGTMTTDPSTSTAYMELRSLRSDDTAVYYCARGYGMDVWGQGTTVTVSS
VL: QSALTQPASVSGSPGQSITISCTGTSSDVGGYNSVSWYQQHPGKAPKLMIYEVSNRPSGVSNRFSGSKSGNTASLTISGLQAEDEADYYCNSYTSTSMVFGGGTKLTVLQ
Take B2: the Kd was determined as 0.36 nM in assay [2] and 0.011 nM in assay [3].

Source of the values: US20130064825A1.
